Series [1] deals with cPPR-NRE (synthetic construct). In words: EMSA. The settings on record: dU as printed (AUUGUAUAUA); EMSA: 10 mM HEPES pH 8.0, 1 mM EDTA, 50 mM KCl, 2 mM DTT, 0.1 mg/ml BSA, 0.02% Tween-20, room temperature 30 min, 0.83 uM probe, 0-10 uM protein (Kd values …). Background: In EMSA bound probe runs differently from free probe, usually more slowly.
For another series, the target named is T1, cPPR-Telo1 (synthetic construct, UniProt PDB:5ORQ_1 1-364).
T1 chain: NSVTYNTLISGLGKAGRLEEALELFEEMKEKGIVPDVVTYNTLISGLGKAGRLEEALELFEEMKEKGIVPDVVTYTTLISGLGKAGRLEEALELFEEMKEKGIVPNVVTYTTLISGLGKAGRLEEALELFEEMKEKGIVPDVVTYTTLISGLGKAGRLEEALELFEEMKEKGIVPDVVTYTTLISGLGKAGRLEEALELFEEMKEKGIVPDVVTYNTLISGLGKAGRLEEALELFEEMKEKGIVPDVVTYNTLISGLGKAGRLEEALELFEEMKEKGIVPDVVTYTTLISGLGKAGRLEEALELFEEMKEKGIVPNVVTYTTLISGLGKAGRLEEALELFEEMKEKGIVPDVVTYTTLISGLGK
Description: EMSA; EMSA: 10 mM HEPES pH 8.0, 1 mM EDTA, 50 mM KCl, 2 mM DTT, 0.1 mg/ml BSA, 0.02% Tween-20, room temperature 30 min, 0.83 uM probe, 0-10 uM protein (Kd values only in Supplementary Fig. 2 graphic). The settings on record: protein: recombinant, tags: GST-His (pETM30), label: 5'-fluorescein via hexaethyleneglycol spacer.

In the next series the target is T2, cPPR-Telo1 (tag removed) (synthetic construct, UniProt PDB:5ORQ_1 1-364).
T2 chain: T1 chain
Description: X-ray crystallography (1.95 A); pH 4.6, 20 mM CaCl2; EMSA: 10 mM HEPES pH 8.0, 1 mM EDTA, 50 mM KCl, 2 mM DTT, 0.1 mg/ml BSA, 0.02% Tween-20, room temperature 30 min, 0.83 uM probe, 0-10 uM protein (Kd values only in Supplementary Fig. 2 graphic). The settings on record: protein: recombinant; tags: none (GST-His removed by TEV); single strand.

For AUUGUAUAUA [NRE ssDNA], the binding signal (fold lower affinity than NRE RNA) in series [1] is 3.
As for GGTTAGGGTTAGGGTTAGGG (structured_DNA) [Primer GG-a (Telo-ssDNA-GG)], the binding result in the series with cPPR-Telo1 (potential intramolecular G4) is reported as “binds”.
As for TTAGGGTTAGGGTTAGGG (ssDNA) [Primer a], the binding result in the series with cPPR-Telo1 (single strand, cannot form G4) is listed as “binds”.
In the case of GGTTAGGGTTAG (ssDNA) [Telo-ssDNA], the binding result in the series with cPPR-Telo1 (single strand) is recorded as “binds”.
Take TTAGGGTTAG (ssDNA) [cPPR-Telo1 target ssDNA]: the binding result with cPPR-Telo1 (tag removed) is on record as “binds”.

Source of the values: publication PMC5992170, “Modular ssDNA binding and inhibition of telomerase activity by designer PPR proteins”.
